Measurements: US20210130804

Columns and labels:
Experiment in all cases: cleavage_in_vitro
[1] = tested on: T1, OMNI-50 TXTL (Ezakiella peruensis strain M6.X2); conditions: PAM NGG
T1 sequence: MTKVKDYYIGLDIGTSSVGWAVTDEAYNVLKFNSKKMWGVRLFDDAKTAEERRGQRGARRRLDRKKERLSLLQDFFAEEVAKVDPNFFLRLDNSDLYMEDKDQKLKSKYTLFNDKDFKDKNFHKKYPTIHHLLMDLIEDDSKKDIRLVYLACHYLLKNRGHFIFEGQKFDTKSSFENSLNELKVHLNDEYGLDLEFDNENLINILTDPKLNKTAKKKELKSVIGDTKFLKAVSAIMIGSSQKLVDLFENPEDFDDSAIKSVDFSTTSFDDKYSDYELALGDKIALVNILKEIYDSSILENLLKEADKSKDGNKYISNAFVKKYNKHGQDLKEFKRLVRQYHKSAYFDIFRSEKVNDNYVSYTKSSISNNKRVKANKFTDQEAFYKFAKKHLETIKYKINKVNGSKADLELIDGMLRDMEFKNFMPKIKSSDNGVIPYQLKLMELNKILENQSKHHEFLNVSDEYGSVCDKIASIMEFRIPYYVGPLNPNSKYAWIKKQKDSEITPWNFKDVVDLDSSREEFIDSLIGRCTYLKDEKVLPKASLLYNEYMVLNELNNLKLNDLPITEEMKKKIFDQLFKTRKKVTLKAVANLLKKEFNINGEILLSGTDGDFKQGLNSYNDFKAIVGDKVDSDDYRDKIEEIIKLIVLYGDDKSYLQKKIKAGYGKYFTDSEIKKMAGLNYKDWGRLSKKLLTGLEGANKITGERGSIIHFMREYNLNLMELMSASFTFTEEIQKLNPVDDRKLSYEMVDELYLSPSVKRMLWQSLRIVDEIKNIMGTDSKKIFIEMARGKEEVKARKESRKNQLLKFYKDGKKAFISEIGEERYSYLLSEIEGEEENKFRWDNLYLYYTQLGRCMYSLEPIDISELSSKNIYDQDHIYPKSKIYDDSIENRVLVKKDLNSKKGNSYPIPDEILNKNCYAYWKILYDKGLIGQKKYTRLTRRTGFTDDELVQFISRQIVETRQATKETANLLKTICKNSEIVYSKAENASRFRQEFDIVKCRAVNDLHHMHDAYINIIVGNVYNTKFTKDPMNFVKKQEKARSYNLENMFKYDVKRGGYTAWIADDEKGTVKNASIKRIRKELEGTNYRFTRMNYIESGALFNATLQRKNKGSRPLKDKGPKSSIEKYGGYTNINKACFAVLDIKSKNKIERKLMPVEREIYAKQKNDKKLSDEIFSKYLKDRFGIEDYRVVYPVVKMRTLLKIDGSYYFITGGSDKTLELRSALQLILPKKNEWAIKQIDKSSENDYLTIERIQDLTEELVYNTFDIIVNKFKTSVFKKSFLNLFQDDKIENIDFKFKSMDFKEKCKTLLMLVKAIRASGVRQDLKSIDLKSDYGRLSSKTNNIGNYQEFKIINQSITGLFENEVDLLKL

[2] = tested on: T2, OMNI-39 TXTL (Butyrivibrio sp. AC2005); conditions: PAM NNGHAD general, NNGYAA specific
T2 sequence: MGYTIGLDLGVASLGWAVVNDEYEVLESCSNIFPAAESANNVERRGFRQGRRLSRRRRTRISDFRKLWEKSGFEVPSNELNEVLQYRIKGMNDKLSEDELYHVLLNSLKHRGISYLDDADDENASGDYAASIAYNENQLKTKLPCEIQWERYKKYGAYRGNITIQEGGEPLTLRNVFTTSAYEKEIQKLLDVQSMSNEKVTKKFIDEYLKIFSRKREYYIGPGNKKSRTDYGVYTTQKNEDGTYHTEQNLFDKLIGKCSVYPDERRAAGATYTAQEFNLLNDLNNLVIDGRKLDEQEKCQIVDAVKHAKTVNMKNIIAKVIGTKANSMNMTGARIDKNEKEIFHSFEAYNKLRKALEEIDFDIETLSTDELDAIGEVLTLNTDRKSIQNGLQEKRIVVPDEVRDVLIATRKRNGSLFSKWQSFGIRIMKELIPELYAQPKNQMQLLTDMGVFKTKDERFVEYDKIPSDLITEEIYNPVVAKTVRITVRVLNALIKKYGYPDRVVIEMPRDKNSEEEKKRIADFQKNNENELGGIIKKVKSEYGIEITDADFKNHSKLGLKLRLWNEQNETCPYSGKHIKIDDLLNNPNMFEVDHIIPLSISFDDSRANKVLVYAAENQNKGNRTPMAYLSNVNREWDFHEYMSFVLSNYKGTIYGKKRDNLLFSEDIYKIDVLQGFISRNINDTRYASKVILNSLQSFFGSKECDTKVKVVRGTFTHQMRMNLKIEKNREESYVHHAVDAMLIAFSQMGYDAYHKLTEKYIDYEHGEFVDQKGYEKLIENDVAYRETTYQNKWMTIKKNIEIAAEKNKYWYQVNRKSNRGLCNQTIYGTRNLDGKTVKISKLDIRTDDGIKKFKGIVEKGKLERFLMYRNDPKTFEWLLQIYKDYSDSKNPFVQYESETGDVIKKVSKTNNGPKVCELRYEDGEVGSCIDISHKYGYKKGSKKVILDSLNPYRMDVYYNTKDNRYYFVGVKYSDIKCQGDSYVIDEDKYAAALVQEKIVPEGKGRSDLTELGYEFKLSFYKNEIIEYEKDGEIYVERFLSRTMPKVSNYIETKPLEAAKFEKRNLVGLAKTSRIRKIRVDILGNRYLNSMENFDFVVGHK

[3] = tested on: T3, OMNI-53 TXTL (Clostridium sp. AF02-29); conditions: PAM NRHR general, NAWA specific
T3 sequence: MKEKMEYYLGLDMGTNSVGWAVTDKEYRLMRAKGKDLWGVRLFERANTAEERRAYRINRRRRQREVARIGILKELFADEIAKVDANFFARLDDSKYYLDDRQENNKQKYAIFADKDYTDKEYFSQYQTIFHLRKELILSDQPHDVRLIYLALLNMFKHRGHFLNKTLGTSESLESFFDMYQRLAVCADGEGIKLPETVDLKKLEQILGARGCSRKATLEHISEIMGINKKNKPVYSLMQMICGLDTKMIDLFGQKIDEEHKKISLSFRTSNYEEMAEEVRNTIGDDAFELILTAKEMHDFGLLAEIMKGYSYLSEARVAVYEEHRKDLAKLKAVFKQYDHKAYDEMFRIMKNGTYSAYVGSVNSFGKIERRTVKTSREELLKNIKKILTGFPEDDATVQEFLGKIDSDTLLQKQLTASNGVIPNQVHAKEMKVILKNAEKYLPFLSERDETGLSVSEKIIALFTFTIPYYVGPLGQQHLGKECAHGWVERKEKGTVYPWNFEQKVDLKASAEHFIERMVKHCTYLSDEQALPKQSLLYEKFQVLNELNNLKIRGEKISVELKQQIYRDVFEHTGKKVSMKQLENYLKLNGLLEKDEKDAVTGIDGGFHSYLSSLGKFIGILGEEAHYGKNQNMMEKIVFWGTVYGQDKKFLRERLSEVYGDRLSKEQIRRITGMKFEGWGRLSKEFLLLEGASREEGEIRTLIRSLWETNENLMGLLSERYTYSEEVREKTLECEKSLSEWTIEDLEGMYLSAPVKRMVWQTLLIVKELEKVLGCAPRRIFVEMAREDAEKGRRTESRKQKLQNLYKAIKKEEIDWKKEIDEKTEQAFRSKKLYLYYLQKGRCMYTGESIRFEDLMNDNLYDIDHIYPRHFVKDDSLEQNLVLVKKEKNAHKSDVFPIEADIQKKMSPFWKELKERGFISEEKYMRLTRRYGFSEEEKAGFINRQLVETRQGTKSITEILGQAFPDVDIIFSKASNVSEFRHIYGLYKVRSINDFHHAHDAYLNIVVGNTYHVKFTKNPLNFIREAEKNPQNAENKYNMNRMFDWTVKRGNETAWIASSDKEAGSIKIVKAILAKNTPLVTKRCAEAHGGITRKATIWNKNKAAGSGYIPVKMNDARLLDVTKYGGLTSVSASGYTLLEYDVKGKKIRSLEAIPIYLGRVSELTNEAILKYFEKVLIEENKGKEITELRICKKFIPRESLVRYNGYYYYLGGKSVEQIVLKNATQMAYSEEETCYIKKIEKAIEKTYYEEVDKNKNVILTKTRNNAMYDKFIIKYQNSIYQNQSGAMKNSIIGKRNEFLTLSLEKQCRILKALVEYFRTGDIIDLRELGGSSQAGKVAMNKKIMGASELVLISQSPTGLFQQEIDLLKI

[4] = tested on: T4, OMNI-40 TXTL (Aliiarcobacter faecis); conditions: PAM NYGRV
T4 sequence: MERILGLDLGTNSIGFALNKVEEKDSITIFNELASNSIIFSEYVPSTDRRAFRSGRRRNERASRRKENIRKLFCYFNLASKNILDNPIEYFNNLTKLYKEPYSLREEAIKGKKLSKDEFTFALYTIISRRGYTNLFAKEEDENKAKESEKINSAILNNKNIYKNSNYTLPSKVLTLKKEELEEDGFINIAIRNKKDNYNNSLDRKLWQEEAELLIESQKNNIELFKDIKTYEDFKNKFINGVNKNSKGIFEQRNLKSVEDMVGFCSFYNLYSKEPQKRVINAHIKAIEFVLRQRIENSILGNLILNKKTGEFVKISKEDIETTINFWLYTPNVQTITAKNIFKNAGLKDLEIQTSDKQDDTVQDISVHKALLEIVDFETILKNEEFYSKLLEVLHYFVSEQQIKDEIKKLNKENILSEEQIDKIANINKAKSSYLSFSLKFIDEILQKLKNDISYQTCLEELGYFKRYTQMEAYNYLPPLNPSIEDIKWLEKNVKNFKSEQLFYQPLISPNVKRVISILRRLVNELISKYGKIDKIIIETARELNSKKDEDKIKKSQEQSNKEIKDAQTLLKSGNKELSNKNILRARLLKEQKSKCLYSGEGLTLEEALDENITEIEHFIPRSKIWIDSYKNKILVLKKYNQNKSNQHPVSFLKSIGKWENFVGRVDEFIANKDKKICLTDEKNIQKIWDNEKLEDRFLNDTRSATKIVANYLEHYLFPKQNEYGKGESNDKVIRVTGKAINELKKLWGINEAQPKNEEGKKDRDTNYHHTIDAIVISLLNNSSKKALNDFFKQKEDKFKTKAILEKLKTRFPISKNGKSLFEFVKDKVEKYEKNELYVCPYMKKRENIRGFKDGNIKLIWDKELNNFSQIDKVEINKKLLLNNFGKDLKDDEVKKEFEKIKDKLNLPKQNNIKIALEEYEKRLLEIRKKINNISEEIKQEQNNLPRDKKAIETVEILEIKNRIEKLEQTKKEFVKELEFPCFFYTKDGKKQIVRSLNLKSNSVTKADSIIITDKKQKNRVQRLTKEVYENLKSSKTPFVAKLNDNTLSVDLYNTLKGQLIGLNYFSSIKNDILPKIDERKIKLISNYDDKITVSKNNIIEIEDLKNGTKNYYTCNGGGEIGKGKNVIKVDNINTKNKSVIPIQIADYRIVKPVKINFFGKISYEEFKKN

GGAAGAGCAGAGCCUUGGUCUCGUUUGAGAGUUAUGUAAGAAAUUACAUGACGAGUUCAAAUAAAAAUUUAUUCAAACCGCCUAUUUAUAGGCCGCAGAUGUUCUGCAUUAUGCUUGCUAUUGCAAGCUUUUUU / GGAAGAGCAGAGCCTTGGTCTCNNNNNNNN / NNNNNNNNGAGACCAAGGCTCTGCTCTTCC [T2 sgRNA V2 OMNI-50 ; T2 protospacer 8N PAM library]
activity (1-depletion score) [1]: 0.98

GGAAGAGCAGAGCCUUGGUCUCGUUUUAGUACCUAGAGAAAGAAAUUUCUUUAGACCUACUAAAAUAAGGCUUUAUGCCGAGAUUAAAGGAUGCCGACGGGCAUCCUUUUUU / GGAAGAGCAGAGCCTTGGTCTCNNNNNNNN / NNNNNNNNGAGACCAAGGCTCTGCTCTTCC [T2 sgRNA V2 OMNI-39 ; T2 protospacer 8N PAM library]
activity (1-depletion score) [2]: 0.95

GGAAGAGCAGAGCCUUGGUCUCGUUUGAGAACCAUGUAAGAAAUUACAUGGUGAGUGCAAAUAAGGAUUAUCCGAAAUUGUAUGCCCGCAUUGUGCGGCAAUAAAAAGGCUCGAAAGAGUCUUUUU / GGAAGAGCAGAGCCTTGGTCTCNNNNNNNN / NNNNNNNNGAGACCAAGGCTCTGCTCTTCC [T2 sgRNA V2 OMNI-53 ; T2 protospacer 8N PAM library]
activity (1-depletion score) [3]: 0.97

GGAAGAGCAGAGCCUUGGUCUCGUUUUGUUACCAUAUGAUUGAAAAUUUAUAUGACCUAACAAAACAAGGGUUUAUCCCGGACUCGGCUCUUCGGAGCCUUUUU / GGAAGAGCAGAGCCTTGGTCTCNNNNNNNN / NNNNNNNNGAGACCAAGGCTCTGCTCTTCC [T2 sgRNA V2 OMNI-40 ; T2 protospacer 8N PAM library]
activity (1-depletion score) [4]: 0.97
